Source: paper PMC8685454
pKd: −log10 of the molar value.

Key:
[1] = biological target: commercial Spike protein, active Recombinant 2019-nCoV Spike Protein, RBD, His Tag (SARS-CoV-2) (UniProt P0DTC2); experiment: ELISA
[2] = biological target: plant produced deglycosylated Receptor Binding Domain of Spike protein of SARS-CoV-2 (SARS-CoV-2) (UniProt P0DTC2); experiment: ELISA

Substance: plant produced Endo H in vivo deglycosylated soluble (truncated) human ACE2 (receptor)
- pKd [1]: 8.33
- pKd [2]: 8.89
